Series [1] addresses T1, SHP1 (human, UniProt P29350 1-595). Kind of series: co-immunoprecipitation from isolated human CD4+ T cells (untreated), Western blot. In general terms: In western blotting, separated proteins are transferred to a membrane and probed.
The target in series [2] is T2, SHP2 (human, UniProt Q06124 2-593).
T2 sequence (looked up): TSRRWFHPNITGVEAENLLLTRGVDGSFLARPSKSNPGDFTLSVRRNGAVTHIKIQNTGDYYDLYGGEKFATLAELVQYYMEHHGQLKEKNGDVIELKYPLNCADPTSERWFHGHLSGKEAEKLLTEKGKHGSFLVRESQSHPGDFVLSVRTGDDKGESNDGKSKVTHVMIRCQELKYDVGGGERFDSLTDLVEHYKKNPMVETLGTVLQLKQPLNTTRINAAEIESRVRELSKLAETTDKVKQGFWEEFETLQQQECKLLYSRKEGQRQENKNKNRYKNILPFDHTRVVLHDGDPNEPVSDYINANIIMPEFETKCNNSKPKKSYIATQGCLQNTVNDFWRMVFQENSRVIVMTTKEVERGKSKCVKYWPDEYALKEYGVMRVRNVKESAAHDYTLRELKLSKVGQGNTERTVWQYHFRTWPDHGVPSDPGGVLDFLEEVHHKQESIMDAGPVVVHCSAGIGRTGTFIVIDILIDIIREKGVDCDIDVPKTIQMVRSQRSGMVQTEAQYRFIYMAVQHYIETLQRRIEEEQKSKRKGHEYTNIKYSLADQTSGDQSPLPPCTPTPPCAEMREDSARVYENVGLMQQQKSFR
The description is as above.

The target in series [3] is T1, SHP1. Kind of series: co-immunoprecipitation from isolated human CD4+ T cells (CD3 and PRO20080 cross-linked), Western blot.
The target of series [4] is T2, SHP2. The description is as above.
Series [5] deals with the molecule itself. Kind of series: BIAcore, homotypic interaction of His-tagged PRO20080. As to the method: Lastly, a BIAcore® assay was performed to determine if a His-tagged PRO20080 would associate with itself. The association rate can be determined by any method in which formation of the complex may be observed as a function of time. In the BIAcore® analysis, in which one measures the association of the protein to an protein that has been immobilized on a biosensor surface (reviewed by Rich & Myszka, Curr. Opin. Biotechnol. 11:54-61 (2000)).

A value given as a limit tells only on which side of the number the result lay.

This note sets out measurements from patent US7419799 (GENETECH, dated 2008).

T1 sequence (P29350 whole entry): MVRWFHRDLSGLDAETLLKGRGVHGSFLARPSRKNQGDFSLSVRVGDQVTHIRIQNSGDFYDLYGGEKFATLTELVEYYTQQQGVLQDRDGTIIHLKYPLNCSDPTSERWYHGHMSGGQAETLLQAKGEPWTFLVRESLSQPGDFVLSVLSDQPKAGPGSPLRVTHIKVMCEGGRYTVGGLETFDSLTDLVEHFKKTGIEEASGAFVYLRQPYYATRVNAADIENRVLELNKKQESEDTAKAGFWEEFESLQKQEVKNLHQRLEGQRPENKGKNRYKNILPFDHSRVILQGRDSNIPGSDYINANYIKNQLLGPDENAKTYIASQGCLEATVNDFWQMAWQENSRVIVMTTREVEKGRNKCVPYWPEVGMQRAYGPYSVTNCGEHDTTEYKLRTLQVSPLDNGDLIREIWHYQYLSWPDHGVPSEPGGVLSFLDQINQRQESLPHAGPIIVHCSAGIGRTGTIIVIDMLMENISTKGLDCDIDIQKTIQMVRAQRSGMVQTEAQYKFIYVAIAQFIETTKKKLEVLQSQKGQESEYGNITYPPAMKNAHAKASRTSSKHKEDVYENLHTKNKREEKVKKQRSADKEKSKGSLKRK

B1: wild type PRO20080 (full-length, expressed in cells) (receptor)
chain: FGPGNVVSQSSLTPLMVNGILGESVTLPLEFPAGEKVNFITWLFNETSLAFIVPHETKSPEIHVTNPKQGKRLNFTQSYSLQLSNLKMEDTGSYRAQISTKTSAKLSSYTLRILRQLRNIQVTNHSQLFQNMTCELHLTCSVEDADDNVSFRWEALGNTLSSQPNLTVSWDPRISSEQDYTCIAENAVSNLSFSVSAQKLCEDVKIQYTDTKMILFMVSGICIVFGFIILLLLVLRKRRDSLSLSTQRTQGPAESARNLEYVSVSPTNNTVYASVTHSNRETEIWTPRENDTITIYSTINHSKESKPTFSRATALDNVV
notes: also called PRO20080 receptor
For B1, the binding result in series [1] and in series [2] was “no binding” in each case.

B2: phosphorylated PRO20080 (receptor)
chain: FGPGNVVSQSSLTPLMVNGILGESVTLPLEFPAGEKVNFITWLFNETSLAFIVPHETKSPEIHVTNPKQGKRLNFTQSYSLQLSNLKMEDTGSYRAQISTKTSAKLSSYTLRILRQLRNIQVTNHSQLFQNMTCELHLTCSVEDADDNVSFRWEALGNTLSSQPNLTVSWDPRISSEQDYTCIAENAVSNLSFSVSAQKLCEDVKIQYTDTKMILFMVSGICIVFGFIILLLLVLRKRRDSLSLSTQRTQGPAESARNLEYVSVSPTNNTVYASVTHSNRETEIWTPRENDTITIYSTINHSKESKPTFSRATALDNVV
modifications: tyrosine-phosphorylated (detected with anti-phosphotyrosine antibody; sites not stated)
notes: The phosphorylated residues are not identified; also called PRO20080 in pervanadate treated cells; PRO20080 after CD3 and PRO20080 cross linking
Regarding B2, the binding result in series [3] and in series [4] was “no binding” in each case.

B3: His-tagged PRO20080 (receptor)
chain: QSSLTPLMVNGILGESVTLPLEFPAGEKVNFITWLFNETSLAFIVPHETKSPEIHVTNPKQGKRLNFTQSYSLQLSNLKMEDTGSYRAQISTKTSAKLSSYTLRILRQLRNIQVTNHSQLFQNMTCELHLTCSVEDADDNVSFRWEALGNTLSSQPNLTVSWDPRISSEQDYTCIAENAVSNLSFSVSAQKLCEDVKIQYTDTKM
notes: In the BIAcore assay the same protein served as both the immobilized and the soluble partner; not shown: His tag
Turning to B3, the equilibrium dissociation constant (Kd) (in general, the concentration at which binding is half-saturated) in series [5] was greater than 100 µM.
